Source: publication PMC7438732, “The H^+-Translocating Inorganic Pyrophosphatase From Arabidopsis thaliana Is More Sensitive to Sodium Than Its Na^+-Translocating Counterpart From Methanosarcina mazei” (Frontiers in Plant Science, 2020)

System: O=P(O)(O)OP(=O)(O)O
Test: cells, lysate or membranes
Settings: 0 mM added NaCl, 100 mM KCl, pH 7.2, 30 °C, Mg2PPi substrate without excess Mg2+, Na+ from Na4PPi present

Chain of MVP (Methanosarcina mazei Go1) (chain, as listed by the source): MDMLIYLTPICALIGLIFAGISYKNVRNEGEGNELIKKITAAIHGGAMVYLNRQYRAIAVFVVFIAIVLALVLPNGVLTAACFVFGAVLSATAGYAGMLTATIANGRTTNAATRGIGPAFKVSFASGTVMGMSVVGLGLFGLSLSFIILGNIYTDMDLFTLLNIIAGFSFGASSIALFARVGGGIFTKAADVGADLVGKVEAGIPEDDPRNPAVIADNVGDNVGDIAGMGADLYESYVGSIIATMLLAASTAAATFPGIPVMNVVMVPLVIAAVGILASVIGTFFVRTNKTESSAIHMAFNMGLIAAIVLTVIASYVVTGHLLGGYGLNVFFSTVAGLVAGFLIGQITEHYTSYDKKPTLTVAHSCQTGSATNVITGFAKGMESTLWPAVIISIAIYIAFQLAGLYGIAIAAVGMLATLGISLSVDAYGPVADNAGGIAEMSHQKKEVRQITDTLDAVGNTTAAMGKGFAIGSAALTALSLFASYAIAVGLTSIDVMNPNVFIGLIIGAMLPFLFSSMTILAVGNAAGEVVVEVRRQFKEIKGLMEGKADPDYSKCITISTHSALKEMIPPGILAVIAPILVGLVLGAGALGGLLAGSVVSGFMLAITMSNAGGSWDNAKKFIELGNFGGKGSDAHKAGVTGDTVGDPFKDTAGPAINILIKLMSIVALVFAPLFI

MVP (Methanosarcina mazei Go1)
K0.5: 0.27 ± 0.27 mM
